The results in this text go back to patent publication US20230399394A1 (SUNSHINE GUOJIAN PHARMACEUTICAL SHANGHAI, published 2023).

Where a chain is given by its changes, count along the chain named.

What is called IC50 is the midpoint of a concentration-inhibition curve. Higher therefore signals weaker potency. For orientation: EC50 means the concentration needed to bring the measured effect to its halfway point. Higher therefore signals a less potent agent. By EC50 (read off the curve) is commonly meant the midpoint of the concentration-response curve.

One assay has as its target T1, Human IL-33-his (human, UniProt O95760 112-270, biotinylated with EZ-Link NHS-Biotin where used as IL-33-his-biotin).
T1 construct: Used plain (SPR, cell assays) and biotinylated (ELISA); also called IL-33-his-biotin
T1 sequence: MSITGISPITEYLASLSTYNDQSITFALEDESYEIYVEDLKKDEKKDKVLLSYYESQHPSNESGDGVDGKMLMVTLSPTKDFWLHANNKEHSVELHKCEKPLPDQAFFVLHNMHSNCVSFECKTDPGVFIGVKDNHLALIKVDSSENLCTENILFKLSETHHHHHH
Briefly: competition ELISA as Example 10, ST2-Fc on plate; competitor ST2-Fc. How it is done: ST2-Fc protein was diluted to 1 μg/mL with ELISA coating solution to coat ELISA plate with 100 μL/well. The plate was placed in a wet box at 4° C. for 16 h for coating. The ELISA plate was washed 3 times with PBST, and then was blocked with 2% BSA prepared in PBS at 200 μL/well at room temperature for 2 h. The plate was washed once with PBST, and was patted dry to remove the excess blocking solution. Each monoclonal antibody was diluted with 1% BSA prepared in PBST in a 3-fold gradient. The highest concentration of antibody was 10 μg/mL, and the antibody was diluted for 11 gradients. The diluted antibody was mixed 1:1 with 10 ng/ml IL-33-his-biotin, and then the mixture was added into the ELISA well at 100 μL/well. The plate was incubated at room temperature for 1 h. Each concentration was added to duplicate wells in parallel (maximum final concentration of antibody was […], final concentration of IL-33-his-biotin was 5 ng/mL). Unbound or non-specifically bound primary antibodies were washed out. According to the instructions of the antibody, HRP labeled streptavidin secondary antibody was diluted to an appropriate concentration with antibody diluent solution, then it was added to ELISA plate with 100 μL/well, and was incubated at room temperature for 1 h. The ELISA plate was washed with PBST for 5 times, and was patted dry on absorbent paper to remove excess liquid. TMB developing solution was added with 100 μL/well for development to an appropriate degree. 2M H₂SO₄ was added with 70 μL/well to terminate development, and the absorbance was measured at 450 nm on a multifunctional microplate reader. The data were analyzed.
The blocking effect of the above humanized antibodies on the binding of IL-33 to its receptor ST2 was determined by the ELISA method, and the relevant experimental methods were referred to Example 10.

The target of assay [1] is T2, IL-33 mutant protein E44A (human, UniProt O95760 112-270).
T2 construct: Prokaryotic expression
T2 chain: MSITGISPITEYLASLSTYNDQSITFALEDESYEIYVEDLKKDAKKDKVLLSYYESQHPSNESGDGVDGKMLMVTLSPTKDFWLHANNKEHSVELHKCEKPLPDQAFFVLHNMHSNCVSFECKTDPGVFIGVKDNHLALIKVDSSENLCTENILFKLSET
The assay can be described thus: ELISA as Example 9; row E44A against WT-1. How it is done:
(§1) SA protein was diluted to 2 μg/mL to coat ELISA plate at 100 μL/well overnight at 4° C. The plate was washed with PBST (PBS containing 0.05% Tween20) for 3 times, and blocked with 2% BSA prepared in PBS at 200 μL/well, at room temperature for 2 h. After the plate was washed twice with PBST, IL-33-his-biotin protein was diluted to 1 μg/mL with 1% BSA prepared in PBST, and was added to ELISA plate at 100 μL/well. The plate was incubated at room temperature for 1 h, and each monoclonal antibody was diluted with 1% BSA prepared in PBST in a 3-fold gradient. The highest concentration of antibody was 10 μg/mL, and the antibody was diluted for 12 gradients. Each diluted monoclonal antibody was added to ELISA wells with 100 μL/well, and the plate was incubated at room temperature for 1 h. Each sample was added to duplicate wells in parallel. The plate was washed with PBST for 3 times, and HRP-anti human IgG Fc secondary antibody prepared with PBST was diluted at an appropriate ratio, and was added to ELISA wells at 100 μL/well. […] Each reaction solution was shaken uniformly and OD450 nm was read on a microplate reader. The data was analyzed and EC₅₀ was calculated.
(§2) Subsequently, according to the experimental method of Example 9, the affinity of the above mutant proteins to 874F7-Hu1 was determined, and IL-33 proteins (WT-1, WT-2, WT-3, and WT-4) without any mutation were set as controls.
For orientation: ELISA stands for enzyme-linked immunosorbent assay.

Assay [2] concerns the target T3, IL-33 mutant protein L51A (human, UniProt O95760 112-270).
T3 construct: Prokaryotic expression
T3 chain: T2 chain with A44E, L51A
The assay can be described thus: ELISA as Example 9; row L51A. How it is done: as §1, §2

In assay [3] the target is T4, IL-33 mutant protein D68A (human, UniProt O95760 112-270).
T4 construct: Prokaryotic expression
T4 chain: T2 chain with A44E, D68A
Briefly: ELISA as Example 9; row D68A against WT-3. How it is done:
as §1, §2

In assay [4] the target is T5, IL-33 mutant protein H58A (human, UniProt O95760 112-270).
T5 construct: Prokaryotic expression
T5 chain: T2 chain with A44E, H58A
Briefly: ELISA as Example 9; row H58A against WT-1. How it is done: as §1, §2

Assay [5] deals with T6, IL-33 mutant protein D65A (human, UniProt O95760 112-270).
T6 construct: Prokaryotic expression
T6 chain: T2 chain with A44E, D65A
The assay can be described thus: ELISA by the method of Example 9 with the IL-33 mutant protein on the plate, 874F7-Hu1 in serial dilution, HRP anti-human IgG Fc, absorbance 450 nm.

B1: 874F7-Hu1 (antibody, human IgG4 S228P, kappa)
heavy: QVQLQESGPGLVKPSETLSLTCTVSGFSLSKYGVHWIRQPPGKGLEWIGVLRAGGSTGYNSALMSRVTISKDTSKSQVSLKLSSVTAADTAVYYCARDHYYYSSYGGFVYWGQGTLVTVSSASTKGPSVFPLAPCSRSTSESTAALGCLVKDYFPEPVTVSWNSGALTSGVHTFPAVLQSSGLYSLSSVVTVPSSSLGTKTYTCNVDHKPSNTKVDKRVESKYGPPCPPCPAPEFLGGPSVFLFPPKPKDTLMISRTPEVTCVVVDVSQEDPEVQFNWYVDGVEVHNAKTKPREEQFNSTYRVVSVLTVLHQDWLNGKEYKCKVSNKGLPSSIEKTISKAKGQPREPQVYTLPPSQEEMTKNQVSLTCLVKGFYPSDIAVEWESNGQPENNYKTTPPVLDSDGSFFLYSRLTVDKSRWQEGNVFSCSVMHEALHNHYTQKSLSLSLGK
light: DIQMTQSPSSVSASVGDRVTITCLASQTIGAWLAWYQQKPGKSPKLLIYAATRLADGVPSRFSGSGSGTDFTLTISSLQPEDFATYYCQQLDSSPYTFGQGTKVEIKRTVAAPSVFIFPPSDEQLKSGTASVVCLLNNFYPREAKVQWKVDNALQSGNSQESVTEQDSKDSTYSLSSTLTLSKADYEKHKVYACEVTHQGLSSPVTKSFNRGEC
notes: also called 874F7-Hul; humanized antibody 874F7-Hu1
Molecule B1 displayed an IC50 in the assay with Human IL-33-his of 0.451 nM. In addition, the Affinity decline ratio turned out to be 0.6 fold in assay [1], 1.2 fold in assay [3] and 1.9 fold in assay [4]. This molecule also registered an EC50 in assay [2] of 0.91 nM. Besides, the “EC50 (read off the curve)” value in assay [5] is ~2 nM.
